# From PMC5799255, “Histone H5 is a potent Antimicrobial Agent and a template for novel Antimicrobial Peptides” (Scientific Reports, 2018)
# Like-named read-outs stand apart in the source and are kept apart here.
# B1: histone H5: erythrocyte-specific linker histone purified from chicken erythrocytes, 190 amino acids (protein, UniProt P02259 2-190, looked up)
# Histone H5: TESLVLSPAPAKPKRVKASRRSASHPTYSEMIAAAIRAEKSRGGSSRQSIQKYIKSHYKVGHNADLQIKLSIRRLLAAGVLKQTKGVGASGSFRLAKSDKAKRSPGKKKKAVRRSTSPKKAARPRKARSPAKKPKATARKARKKSRASPKKAKKPKTVKAKSRKASKAKKVKRSKPRAKSGARKSPKKK
# Key:
# [1] = system: Listeria monocytogenes (ATCC 19112); settings: for MIC: broth microdilution
# Experimental: (§1) Antimicrobial activity of histone H5 against a variety of Gram-positive and Gram-negative planktonic bacteria was evaluated using a broth microdilution assay.
# (§2) The antimicrobial activity of these peptides against Gram-positive and Gram-negative planktonic bacteria was evaluated using broth microdilution assays.
# (§3) The bacterial strains tested in this study were Gram-positive bacteria (Bacillus cereus (ATCC 11778), methicillin-sensitive Staphylococcus aureus (ATCC 6538), methicillin-resistant Staphylococcus aureus (ATCC 29247), Listeria monocytogenes (ATCC 19112), Enterococcus faecalis (clinical isolate) and vancomycin-resistant Enterococcus (ATCC 51299)) and Gram-negative bacteria Escherichia coli K12 (ATCC 29425), Escherichia coli (O157:H7), Pseudomonas aeruginosa (ATCC 15442) and Salmonella typhimurium (ATCC 1535)). Bacterial colonies from glycerol stocks were plated on LB agar plates (BHI agar plates for L. monocytogenes) and incubated overnight at 37 °C. Single colonies from these plates were grown in 3 mL of LB broth (BHI broth for L. monocytogenes) overnight at 37 °C and shaken at 250 rpm. […] The bacterial suspension was pelleted at 3,000 × g, 4 °C for 10 minutes and washed with PBS (twice), and then adjusted to 10^5–10^6 CFUs/mL in PBS.
# (§4) Supplementary Information
# (§5) Broth microdilution assay
# (§6) The protocol for this step of the project was based on established methods22. Histone H5 or the peptides were dissolved in sterile water, pH 7.4, serially two-fold diluted and aliquoted in a 1:1 (v/v) ratio with bacteria. Kanamycin or ampicillin served as a positive control for inhibition, and sterile water (pH 7.4) as a negative control for inhibition. The tubes were then incubated for 3 hours at 37°C an d shaken at 200 rpm. Next, 100 µL of each tube and 100µL of LB broth (BHI broth for L. monocytogenes) was plated in wells of a 96-well microplate. The microplate was incubated in the EON microplate reader overnight at 206 oscillations/min and at 37°C. During this period, the EON microplate spectrophotometer and Gen5 data analysis software (BioTek, Winooski, VT, USA) were used to monitor the growth of bacteria by measuring the optical density at 600 nm every 30 minutes for 18 hours. The lowest protein concentration without visible bacterial growth was designated as the minimum inhibitory concentration (MIC). Bacteria (10 µL) from the wells at MIC, MIC x 2 and MIC x 3 concentrations of H5 were plated on LB agar (BHI agar for L. monocytogenes) and incubated at 37°C for 18 hours. The lowest concentration of histone H5 without a single colony was designated as the minimum bactericidal concentration (MBC).
# [2] = system: Pseudomonas aeruginosa (ATCC 15442)
# Experimental: as §1, §2, §3, §4, §5, §6
# [3] = system: Gram-positive and Gram-negative planktonic bacteria; experiment: Broth microdilution assay, summary over the planktonic bacteria tested; assay type: cell-based; settings: bactericidal when MBC ≤4 times the MIC
# Experimental: Antimicrobial activity of histone H5 against a variety of Gram-positive and Gram-negative planktonic bacteria was evaluated using a broth microdilution assay. The average minimum inhibitory concentration (MIC) and minimum bactericidal concentration (MBC) values (mean ± SD, n = 3) for six Gram-positive and four Gram-negative bacterial species are shown in Table 2. […] E. faecalis was the least susceptible to histone H5 inhibition, requiring over 32 µg/mL for complete bacterial growth inhibition which was the highest histone H5 concentration tested.
# The bacterial strains tested in this study were Gram-positive bacteria (Bacillus cereus (ATCC 11778), methicillin-sensitive Staphylococcus aureus (ATCC 6538), methicillin-resistant Staphylococcus aureus (ATCC 29247), Listeria monocytogenes (ATCC 19112), Enterococcus faecalis (clinical isolate) and vancomycin-resistant Enterococcus (ATCC 51299)) and Gram-negative bacteria Escherichia coli K12 (ATCC 29425), Escherichia coli (O157:H7), Pseudomonas aeruginosa (ATCC 15442) and Salmonella typhimurium (ATCC 1535)). Bacterial colonies from glycerol stocks were plated on LB agar plates (BHI agar plates for L. monocytogenes) and incubated overnight at 37 °C. […]
# The protocol for this step of the project was based on established methods22. […] The microplate was incubated in the EON microplate reader overnight at 206 oscillations/min and at 37°C. […]
# [4] = Circular dichroism (CD) secondary structure analysis, CDSSTR deconvolution; assay type: physicochemical; settings: for α-helix: room temperature, average of two independent measurements
# Experimental: The secondary structure of histone H5 and the three preparations of histone H5-derived peptide H5(61–90) was investigated in different environments: sterile H2O, pH 7.4 (aqueous environment) and 30 mM SDS (mimicking the negatively charged bacterial membrane environment), by circular dichroism (CD) spectroscopy. […] Deconvolution of the spectral data with the CDSSTR program estimated the secondary structural components (α-helix, β-sheet, turns, etc.) of each peptide (Table 8). […] However, the α-helical proportions in the presence of 30 mM SDS were 76.9%, 84.2%, 75.5% and 84.7% for histone H5, H5(61–90) V1, H5(61–90) V2 and H5(61–90) V3, respectively.
# The protocol followed for circular dichroism spectrometry was based on previously described methods. Circular dichroism (CD) measurements were performed using a Jasco-715 Spectropolarimeter (Japan Spectroscopic Co., Tokyo), in which the wavelengths scanned were 185 to 260 nm, using a scan speed of 100 nm/min, a bandwidth and data pitch of 1.0 nm, with a quartz cell (0.1 cm path length). Histone H5 and histone H5-derived peptides were dissolved in sterile ddH2O, pH 7.4, or 30 mM SDS. The CD spectrum of sterile ddH2O (buffer of the samples) was used as the blank. Each CD spectrum represents the average of two independent measurements, each in quintuplicate. The CD data was converted to molar ellipticity [θ], which was calculated using the following equation:1 [θ]=CDinmdeg/(10×pathlengthincm×Cr) where Cr = number of residues x molar concentration (mol/L).
# In order to estimate secondary structure content, averaged CD spectra for each peptide were analysed using the CDSSTR software. This program analyzes the molar ellipticity [θ] values at each wavelength and compares them with a library of known protein secondary structures (α-helix, β-sheet, turns, etc.) in order to estimate the percentages of the various secondary structural components of the tested peptide samples.
molecule,measurement,setting,value
B1,MIC,[1]; MIC given in molar units,0.2 ± 0 µM
same,MIC,"[1]; 3 h at 37 °C, then OD600 growth 18 h in BHI broth, mean ± SD, n = 3",4 ± 0 µg/mL
same,MBC,"[1]; plated on BHI agar, 37 °C 18 h, lowest concentration without a single colony, mean ± SD, n = 3",4.4 ± 0.8 µg/mL
same,MIC,"[2]; broth microdilution, MIC given in molar units",0.1 ± 0.1 µM
same,MIC,"[2]; broth microdilution, 3 h at 37 °C, then OD600 growth 18 h in LB broth, mean ± SD, n = 3",2.9 ± 1 µg/mL
same,MBC,"[2]; plated on LB agar, 37 °C 18 h, lowest concentration without a single colony, mean ± SD, n = 3",2.9 ± 1 µg/mL
same,MIC,"[2]; value in the figure, representative of three independent trials, each in triplicate",4 µg/mL
same,MBC/MIC,[3],≤ 4
same,Random Coil,"[4]; 30 mM SDS, CD",8.9%
same,Turns,"[4]; 30 mM SDS, CD",4.5%
same,β-sheet,"[4]; 30 mM SDS, CD",9.7%
same,α-helix,"[4]; 30 mM SDS, CD 185-260 nm",76.9%
same,Random Coil,"[4]; sterile ddH2O pH 7.4, CD",32.2%
same,Turns,"[4]; sterile ddH2O pH 7.4, CD",22.4%
same,β-sheet,"[4]; sterile ddH2O pH 7.4, CD",22.7%
same,α-helix,"[4]; sterile ddH2O pH 7.4, CD 185-260 nm",23.4%
